The numbers were not newly measured in paper PMC8232796, which cites them from elsewhere.

By Kd is commonly meant a measure of binding affinity in units of concentration.

In series [1] the target is Ubiquitin (Homo sapiens) (UniProt P0CG48).
The target is the same in series [2]. This is another data set of the same source.
For series [3] the target is unchanged. This is another data set of the same source.
In series [4] the target is HIV-1 Gag p6 peptide p6 (Human immunodeficiency virus 1) (UniProt O93182).

Like-named read-outs stand apart in the source and are kept apart here.

Sequence of Tsg101 UEV UEV (Q99816 1-148): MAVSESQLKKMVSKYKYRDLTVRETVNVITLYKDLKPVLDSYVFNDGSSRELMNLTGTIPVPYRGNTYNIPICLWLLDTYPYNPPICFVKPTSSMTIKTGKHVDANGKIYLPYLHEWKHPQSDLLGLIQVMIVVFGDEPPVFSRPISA
Sequence of UbcH5 (P51668 whole entry): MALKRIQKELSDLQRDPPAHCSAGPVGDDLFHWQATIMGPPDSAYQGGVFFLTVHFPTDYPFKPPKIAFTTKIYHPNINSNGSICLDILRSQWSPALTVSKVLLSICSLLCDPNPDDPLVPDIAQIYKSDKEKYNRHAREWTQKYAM
Sequence of hMms2 UEV (Q15819 2-145): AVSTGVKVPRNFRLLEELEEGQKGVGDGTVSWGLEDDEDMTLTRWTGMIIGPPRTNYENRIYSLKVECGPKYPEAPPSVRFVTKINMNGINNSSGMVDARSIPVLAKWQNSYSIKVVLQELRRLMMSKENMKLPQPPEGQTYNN

In the case of hMms2 UEV (from UniProt Q15819), the Kd in series [1] is 100 µM.
For the substance UbcH5 (from UniProt P51668), the dissociation constant (Kd) in series [2] is 300 µM.
Take Tsg101 UEV UEV (from UniProt Q99816): the dissociation constant Kd is 500 µM in series [3] and 27 µM in series [4].
